Experimental data: the Human Domainome abundance scans (Beltran et al. 2025)

B1: Mineralocorticoid receptor, residues 600 to 675; numbered along this chain, P08235 (parent)
chain: SKICLVCGDEASGCHYGVVTCGSCKVFFKRAVEGQHNYLCAGRNDCIIDKIRRKNCPACRLQKCLQAGMNLGARKS
B2: Ankyrin repeat and SAM domain-containing protein 6, residues 774 to 836; numbered along this chain, Q68DC2 (parent)
chain: DEDELTGILKKLSLEKYQPIFEEQEVDMEAFLTLTDGDLKELGIKTDGSRQQILAAISELNAG

Variants of: B1
Assay: abundance fitness (aPCA) (normalised: wild type 0, dead -1); higher = more abundant; growth selection in yeast, the domain comes from the species named
Conditions: Homo sapiens

Abundance fitness: each site, then its substitutions
G72: R -0.065; Q 0.053; I -0.02; Y -0.074; L -0.021; E -0.036; H 0.032; C 0; F -0.134; D 0.029; W -0.124; S -0.009; K -0.048; V 0.012; T -0.115; M -0.042; P 0.011
C64: T -0.35; F -0.466; I -0.415; N -0.886; E -0.851; Y -0.452; L -0.351; K -0.885; P -0.869; G -0.02; D -0.716; V -0.587; W -0.523; S -0.113; Q -0.315; M -0.017; A -0.028; H -0.821
K63: S -0.104; G -0.104; L -0.092; W -0.204; Y -0.137; N -0.058; H -0.099; M -0.074; I -0.101; T -0.024; Q -0.134; F -0.192; R -0.082; E -0.16; D -0.318; A -0.075; P -0.754
P57: V -0.135; W -0.027
Q66: L -0.112; F -0.019; E 0.081; I -0.029; R -0.014; M -0.065; C -0.023; A 0.011; P -0.697; Y -0.094; H -0.045; T -0.051; D 0.018; V -0.039; G -0.044; W -0.029
K75: C -0.038; H 0.077; V 0.034; A 0.059; P 0.011; D -0.057; F -0.167; Y -0.051; L -0.056; M -0.025; W -0.007; T 0.014; E 0.055; I -0.213; Q 0.05; G -0.024; N -0.092; S 0.065
G68: K -0.217; R -0.172; F -0.77; H -0.381; E -0.146; M -0.211; S -0.222; T -0.423; A -0.382; I -0.266; W -0.447; Q -0.153; L -0.484; D -0.164; N -0.152; V -0.518; P -0.451
L61: N -0.338; E -0.214; C -0.843; R -0.205; G -0.566; T -0.361; A -0.315; Y 0.04; V -0.101; I -0.155; S -0.471; K 0.021; F -0.031; Q -0.005; H -0.233; D -0.774; W -0.004
A58: D -0.085; F -0.082; Q 0.035; V -0.446; W -0.102; K -0.044; N -0.03; C 0.05; P -0.117; R -0.033; G -0.051; L -0.175; M -0.141; I -0.827; S 0.012; E -0.12
C59: N -0.711; W -0.855; T -0.654; D -0.626; M -0.913; K -0.972; P -0.615; R -0.801; I -0.955; G -0.917; E -0.955; Y -0.995; S -0.762; H -0.449; L -0.658; Q -0.957; F -0.788
A67: E 0.092; D -0.653; F -0.121; M 0.055; C -0.03; Y -0.264; R -0.053; W -0.055; Q -0.17; G -0.076; K -0.144; N -0.084; L -0.002; I -0.076; H -0.026
S76: G -0.076; C -0.128; I -0.198; F -0.119; L -0.012; H -0.051; E -0.044; R -0.116; P 0.007; K -0.654; T 0.01; Q -0.096; N -0.071; V -0.173; D -0.031; W 0.122; M -0.084; Y -0.075
M69: H -0.617; R -0.421; D -0.293; S -0.341; E -0.307; G -0.235; K -0.261; F -0.239; T -0.353; Y -0.493; N -0.523; W -0.427; C -0.128; A -0.058; Q -0.262
Q62: H 0.006; V -0.022; K 0.046; A -0.013; E -0.054; L 0.012; P -0.887; T -0.052; W -0.059; R -0.045; G -0.028; C -0.002; M 0.026; Y -0.121; N 0.033; F -0.16; S -0.049
R74: K 0.02; F -0.088; I -0.042; T 0.138; Y -0.031; M -0.015; D -0.003; L -0.061; E 0.056; C 0.005; G -0.022; V 0.026; N -0.011; P -0.03; A 0.027; S -0.001; W 0; Q -0.079
N70: H -0.031; T -0.04; Q -0.019; S 0.034; I -0.02; R -0.014; Y -0.009; C -0.154; V -0.011; F -0.07; P -0.021; D 0.014; M -0.044; G -0.082; L -0.089; W -0.087; K 0.058; E -0.035
L65: N -0.058; D -0.051; R -0.055; M -0.052; K -0.107; Q 0.018; T -0.037; W -0.035; Y -0.001; H 0.032; V -0.087; E 0.031; A -0.05; G -0.051; F -0.01

Variants of: B2
Assay: as above
Conditions: Homo sapiens

Abundance fitness, by site and new letter:
E2: T 0.361; R 0.081; A -0.029; L 0.288; N 0.047; G -0.158; M 0.565; Y 0.063; P 0.112; F 0.287; V -0.234; H 0.248; Q 0.11; C 0.142; W 0.143
E4: K -0.452; G -0.254; T -0.201; D -0.334; S -0.148; Q -0.619; I 0.179; H -0.31; F -0.05; L -0.326; A -0.527; N -0.838; V -0.215; C -0.016; R -0.602; P -0.619; M -0.27
D3: R -0.064; E -0.078; S 0.054; C 0.057; K 0.162; P -0.177; N -0.074; L 0.133; F 0.084; G -0.472; A -0.157; H 0.2; T -0.118; M 0.209; I -0.082; Y 0.116; V -0.267; Q 0.08
D1: F -0.312; E -0.103; I 0.158; N 0.113; M 0.351; A -0.023; W -0.363; G -0.039; T 0.007; Q 0.002; S 0.045; L 0.223; Y 0.031
